# US20140348844A1 (UCB, published 2014)
# Substitutions are numbered along the chain they refer to. Where “and” joins values, the source holds several entries; their conditions need not be identical. Identical values can stand only once.
# B1: CA164_00997.g1 (antibody, V domains shown)
# VH: EVQLVESGGGLVQPGGSLRLSCTVSGIDLSSHHMCWVRQAPGKGLEYIGVIYHFGSTYYANWATGRFTISKDSTTVYLQMNSLRAEDTATYFCARASIAGYSAFDPWGQGTLVTVS
# VL: ALVMTQSPSSFSASTGDRVTITCQASQSISSYLSWYQQKPGKAPKLLIYRASTLASGVPSRFSGSGSGTEYTLTISCLQSEDFATYYCLGVYGYSNDDGIAFGGGTKVEIK
# B2: CA164_1151.g4 (antibody, V domains shown)
# VH: EVQLQESGPGLVKPSETLSLTCTVSGFSLTSYYVHWVRQPPGKGLEWMGCIRTGGNTEYQSEFKSRVTISRDTSKNQVSLKLSSVTAADTAVYYCARGNYGFAYWGQGTLVTVS
# VL: AIQMTQSPSSLSASVGDRVTITCKASQNVGNNVAWYQHKPGKAPKLLIYYASNRFTGVPSRFTGGGYGTDFTLTISSLQPEDFATYYCQRVYQSTWTFGQGTKVEIK
# notes: also called CA1151; CA1151.g4
# B3: CA164_1134.g5 (antibody, V domains shown)
# VH: EVQLQESGPGLVKPSETLSLTCTVSGFSLNSYTITWVRQPPGKGLEWIAAISGGGSTYFNSALKSRVTISRDTSKSQVSLKLSSVTAADTAVYYCTRPRWYPRSYFDYWGRGTLVTVS
# VL: DVQLTQSPSFLSASVGDRVTITCKASKSISNHLAWYQEKPGKANKLLIHSGSTLQPGTPSRFSGSGSGTEFTLTISSLQPEDFATYYCQQYDEYPYTFGQGTRLEIK
# notes: also called CA1134; CA164_01134.g5
# B4: CA164_1099.g2 (antibody, V domains shown)
# VH: B3 VH with N30Q, T35S, F59Y, S61L, A62P
# VL: DVQLTQSPSFLSASVGDRVTITCKASKSISNHLAWYQEKPGKANKLLIHSGSTLQSGTPSRFSGSGSGTEFTLTISSLQPEDFATYYCQQYDEYPYTFGQGTRLEIKR
# B5: CA164_00922.g1 (antibody, V domains shown)
# VH: EVQLVESGGGLVQPGGSLRLSCAASGFTISSYYMSWVRQAPGKGLEWIGIISSGGHFTWYANWAKGRFTISSDSTTVYLQMNSLRDEDTATYFCARAYVSGSSFNGYALWGQGTLVTVS
# VL: DPVMTQSPSTLSASVGDRVTITCQASQSISNALAWYQQKPGKAPKLLIYSASSLASGVPSRFKGSGSGTEFTLTISSLQPDDFATYYCQYTHYSHTSKNPFGGGTKVEIK
# B6: CA164_00995.g1 (antibody, V domains shown)
# VH: EVQLVESGGGLVQPGGSLRLSCTASGFSLSNYDMIWVRQAPGKGLEYIGFINTGGITYYASWAKGRFTISRDSSTVYLQMNSLRAEDTATYFCARVDDYIGAWGAGLWGQGTLVTVS
# VL: DVVMTQSPSTLSASVGDRVTITCQASQSINNYFSWYQQKPGKAPKLLIYGAANLASGVPSRFKGSGSGTEYTLTISSLQPDDFATYSCQNNYGVHIYGAAFGGGTKVEIK
# notes: also called CA995; CA164_0995.g1
# B7: CA164_01000.g1 (antibody, V domains shown)
# VH: EVQLVESGGGLIQPGGSLRLSCTVSGIDLSSDAVGWVRQAPGKGLEYIGIIATFDSTYYASWAKGRFTISKASSTTVYLQMNSLRAEDTATYFCARTGSWYYISGWGSYYYGMDLWGQGTLVTVS
# VL: EIVMTQSPSTLSASVGDRVTITCQASQSIYSYLAWYQQKPGKAPKLLIYDASTLASGVPSRFKGSGSGTEFTLTISSLQPDDFATYYCQGNAYTSNSHDNAFGGGTKVEIK
# What was measured:
# [1] = molecular target: TcdA ribotype 078 (Clostridium difficile ribotype 078); assay: cell-based or functional assay
# [2] = molecular target: T1, toxin B (VPI 10463) (Clostridium difficile strain VPI 10463, UniProt P18177 2-2366); assay: cell-based or functional assay
# [3] = molecular target: T2, TcdB binding (TcdB1234) (Clostridium difficile ribotype 027, UniProt P18177 1833-2366); assay: SPR Biacore 3000, biotinylated TcdB1234 on streptavidin chip, antibody at 500 nM, saturating response
# T2 construct: also called CROPs1,2,3,4 of Toxin B
# [4] = molecular target: T1, toxin B (VPI 10463); assay: cell-based or functional assay; remark: listed apart in the source
# [5] = molecular target: T2, TcdB binding (TcdB1234); assay: SPR BIAcore 3000, Mab captured on anti-human Fc, TcdB1234 in solution, purified Mab 3 point titration
# [6] = molecular target: T1, toxin B (VPI 10463); assay: cell-based or functional assay; remark: listed apart in the source
# [7] = molecular target: T3, TcdA from ribotype 027 (Clostridium difficile ribotype 027, UniProt P16154 1-2710); assay: estimated from SPR on TcdA sub-domains
# T3 construct: also called TcdA ribotype 027; TcdA whole toxin
# [8] = molecular target: TcdA purified from strain VPI10463 (Clostridium difficile strain VPI10463, UniProt P16154 1-2710); assay: cell-based or functional assay
# [9] = molecular target: TcdA CROPS456 (TcdA456) (Clostridium difficile ribotype 027, UniProt P16154 2205-2608)
binder,measurement,setting,value
B1,"EC50 values (ng/ml) - TcdA ribotype 078, LD80",[1],0.33 ng/mL
same,"EC50 values (ng/ml) - TcdA ribotype 078, LD90",[1],0.64 ng/mL
same,"EC50 values (ng/ml) - TcdA ribotype 078, LD95",[1],1.11 ng/mL
same,"EC50 values (ng/ml) - TcdA ribotype 078, LDmax",[1],2.57 ng/mL
B2,"IC50 (ng/ml), TcdB neutralisation on Caco-2 cells, toxin at LD80",[2],182 ng/mL
same,Binding Response (RU),[3],1230 RU
same,"Maximum neutralisation, TcdB LD75",[4],45%
same,"Maximum neutralisation, TcdB LD86",[4],25%
same,"Maximum neutralisation, TcdB LD90",[4],20%
B3,"IC50 (ng/ml), TcdB neutralisation on Caco-2 cells, toxin at LD80",[2],8 ng/mL
same,"Maximum neutralisation, TcdB LD75",[4],45%
same,"Maximum neutralisation, TcdB LD86",[4],25%
same,"Maximum neutralisation, TcdB LD90",[4],15%
same,Kd,[5],0.0481 nM and 0.048 nM
same,koff,[5],2.45e-05 s⁻¹
same,kon,[5],509000 M⁻¹ s⁻¹
same,"EC50(ng/ml), TcdB neutralisation on Caco-2 cells, constant toxin concentration",[6],> 1000 ng/mL
B4,"IC50 (ng/ml), TcdB neutralisation on Caco-2 cells, toxin at LD80",[2],2 ng/mL
B5,"EC50 values (ng/ml) - TcdA ribotype 078, LD80",[1],0.11 ng/mL
same,"EC50 values (ng/ml) - TcdA ribotype 078, LDmax",[1],0.68 ng/mL
B6,"Valency of binding, TcdA, est.",[7],1
same,"EC50 (ng/ml), TcdA neutralisation on Caco-2 cells, TcdA at LD80",[8],37.6 ng/mL
same,Kd,[9],0.119 nM
same,koff,[9],3.42e-05 s⁻¹
same,kon,[9],287000 M⁻¹ s⁻¹
B7,"EC50 values (ng/ml) - TcdA ribotype 078, LD80",[1],2.04 ng/mL
same,"EC50 values (ng/ml) - TcdA ribotype 078, LD90",[1],2.41 ng/mL
same,"EC50 values (ng/ml) - TcdA ribotype 078, LD95",[1],5.03 ng/mL
same,"EC50 values (ng/ml) - TcdA ribotype 078, LDmax",[1],14.2 ng/mL
